The text below walks through data of patent US20080207498A1, “Methods for Treating Alzheimer's Disease” (priority 2005, published 2008).

No end group written: not given here.

In assay [1] the target is Preformed immune complex of peroxidase and rabbit anti-peroxidase IgG (PAP complex) (horseradish) (UniProt P00433). Description: competition reverse ELISA: PAP pre-incubated with peptide, residual PAP binding to FcγIIa-coated plate. A general note: An ELISA detects its analyte on a solid surface through an enzyme-linked reagent.
For assay [2] the target is unchanged. Description: competition reverse ELISA: PAP pre-incubated with peptide, residual PAP binding to C1q-coated plate.
Assay [3] shares this target. Description: competition reverse ELISA: PAP pre-incubated with peptide, residual PAP binding to FcγIII-coated plate.
For assay [4] the target is unchanged. Description: competition reverse ELISA: PAP pre-incubated with peptide, residual PAP binding to FcγIIb-coated plate.
The target is the same in assay [5]. Description: competition reverse ELISA: PAP pre-incubated with peptide, residual PAP binding to plate coated with human wt tau.
For assay [6] the target is unchanged. Description: competition reverse ELISA: PAP pre-incubated with peptide, residual PAP binding to plate coated with human wt β amyloid peptide 1-40.

Sequence of Preformed immune complex of peroxidase and rabbit anti-peroxidase IgG (PAP complex) (horseradish) (P00433 31-338, one chain of several): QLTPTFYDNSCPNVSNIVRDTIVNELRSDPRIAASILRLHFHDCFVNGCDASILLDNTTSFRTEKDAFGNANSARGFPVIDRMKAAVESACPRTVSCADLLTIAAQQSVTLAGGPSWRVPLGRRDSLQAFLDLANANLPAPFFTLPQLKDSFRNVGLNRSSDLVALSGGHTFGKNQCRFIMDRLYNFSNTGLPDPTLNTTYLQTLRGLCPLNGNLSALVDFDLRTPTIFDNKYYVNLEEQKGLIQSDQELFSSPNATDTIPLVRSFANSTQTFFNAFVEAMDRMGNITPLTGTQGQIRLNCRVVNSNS

B1: Peptide … (SEQ ID NO:14) (peptide)
peptide: APPCARHLGELVWCT
modifications: not fully specified; cysteine pairing not given here
Regarding B1, the OD 405 nm in assay [1] was 0.956 OD; in assay [2], 0.567 OD; in assay [3] it was 0.709 OD; in assay [4], 0.768 OD.

B2: Peptide … (SEQ ID NO:13) (peptide)
peptide: APPCAWHLGELVWCT
modifications: not fully specified; cysteine pairing not given here
Consider B2, for which the OD 405 nm is 0.658 OD in assay [1], 1.15 OD in assay [2], 0.53 OD in assay [3] and 0.562 OD in assay [4].

B3: Peptide … (SEQ ID NO:3) (peptide)
peptide: DCAFHLGELVWCT
In the case of B3, the OD 405 nm came to 0.66 OD in assay [1], 0.859 OD in assay [2], 0.81 OD in assay [3] and 0.51 OD in assay [4].

B4: Peptide … (SEQ ID NO:16) (peptide)
peptide: APPDCAWHLGELVWCT
With B4, the OD 405 nm in assay [1] was 0.509 OD; in assay [5] it was 0.059 OD; in assay [2], 0.389 OD; in assay [3] it was 0.67 OD; in assay [6] it was 0.885 OD; in assay [4], 0.496 OD.

B5: Peptide … (SEQ ID NO:15) (peptide)
peptide: APPCAFHLGELVWCT
modifications: not fully specified; cysteine pairing not given here
Consider B5, for which the OD 405 nm in assay [1] worked out at 0.605 OD; in assay [2], 0.983 OD; in assay [3], 0.88 OD; in assay [4], 0.38 OD.
